Each block holds one molecule with its values, some of them ahead of it.
Experiments:
human ROR1 on cell lines [1] = target: T1, human ROR1 on cell lines (human, UniProt Q01973 30-937); assay: quantitative flow cytometry on HCCLM3 cells (cell only 1014)
T1 construct: Jeko-1 'bearing the ROR1 antigen'); also called Receptor tyrosine kinase-like orphan receptor 1

human ROR1 on cell lines [2] = target: T1, human ROR1 on cell lines; assay: quantitative flow cytometry on NCI-H226 cells (cell only 1536.32)
human ROR1 on cell lines [3] = target: T1, human ROR1 on cell lines; assay: quantitative flow cytometry on Namalwa cells (cell only 319.84)
human ROR1 on cell lines [4] = target: T1, human ROR1 on cell lines; assay: quantitative flow cytometry on MKN-45 cells (cell only 451)
human ROR1 on cell lines [5] = target: T1, human ROR1 on cell lines; assay: quantitative flow cytometry on MKN-45 cells (cell only 641.4)
human ROR1 on cell lines [6] = target: T1, human ROR1 on cell lines; assay: quantitative flow cytometry on Daudi cells (cell only 229)
human ROR1 on cell lines [7] = target: T1, human ROR1 on cell lines; assay: quantitative flow cytometry on Daudi cells (cell only 328.77)
human ROR1 on cell lines [8] = target: T1, human ROR1 on cell lines; assay: quantitative flow cytometry on KATO-III cells (cell only 1075.85)
human ROR1 on cell lines [9] = target: T1, human ROR1 on cell lines; assay: quantitative flow cytometry on MHCC97H cells (cell only 781)
human ROR1 on cell lines [10] = target: T1, human ROR1 on cell lines; assay: quantitative flow cytometry on NCI-H2228 cells (cell only 894.37)
human ROR1 on cell lines [11] = target: T1, human ROR1 on cell lines; assay: quantitative flow cytometry on NCI-H226 cells (cell only 1097)
human ROR1 on cell lines [12] = target: T1, human ROR1 on cell lines; assay: quantitative flow cytometry on Namalwa cells (cell only 222)
human ROR1 on cell lines [13] = target: T1, human ROR1 on cell lines; assay: quantitative flow cytometry on Jeko-1 cells (cell only 340.33)
human ROR1 on cell lines [14] = target: T1, human ROR1 on cell lines; assay: quantitative flow cytometry on KATO-III cells (cell only 764)
human ROR1 on cell lines [15] = target: T1, human ROR1 on cell lines; assay: quantitative flow cytometry on HCCLM3 cells (cell only 1420.81)
human ROR1 on cell lines [16] = target: T1, human ROR1 on cell lines; assay: quantitative flow cytometry on MDA-MD-231 cells (cell only 942.92)
human ROR1 on cell lines [17] = target: T1, human ROR1 on cell lines; assay: quantitative flow cytometry on MHCC97H cells (cell only 1099.77)
human ROR1 on cell lines [18] = target: T1, human ROR1 on cell lines; assay: quantitative flow cytometry on MDA-MD-231 cells (cell only 668)
human ROR1 on cell lines [19] = target: T1, human ROR1 on cell lines; assay: quantitative flow cytometry on NCI-H2228 cells (cell only 633)
human ROR1 on cell lines [20] = target: T1, human ROR1 on cell lines; assay: quantitative flow cytometry on Jeko-1 cells (cell only 237)
human ROR1 on cell lines [21] = target: T1, human ROR1 on cell lines; assay: flow cytometry on Jeko-1 cells, FITC secondary, surface signal left after 37 C, 30 min T1 (secondary only 216)
Experimental: (§1) The following JeKo-1 internalization assay was used. [0179] 1. Harvest Jeko-1 cells (suspension): count and spin down required cell number for experiment in 15 ml falcon tube. Re-suspended in PBS+3% FBS in bulk and aliquoted 100 μl (500,000 cells) per tube. [0180] 2. 2 μg each ADC per tube were added from bulk dilution, incubated 4° C. (on ice) for 1 hour. [0181] 3. 3×wash in 3 ml PBS+3% FBS. Centrifuge set to 1200 RPM for 3 min spin. Carefully decanted and discarded supernatant at each step. Pulse vortexed cell pellets. Left equal volumes in tubes after final wash. [0182] 4. Placed one set of tubes at 37° C. for each Ab tested, included secondary only control set for comparison. T₀=4° C., T₁=37° C. 30 min, T₁=37+ C., […] [0183] 5. After incubation times were complete, removed tubes from incubator and keep on ice until all samples were collected. [0184] 6. Added FITC labelled secondary, incubate on ice 45 min. [0185] 7. 3×wash in 3 ml PBS+3% FBS. Centrifuge set to 1500 RPM for 5 min spin. Carefully decanted and discarded supernatant at each step. Pulse vortexed cell pellets. Left equal volumes in tubes after final wash. [0186] 8. Collected data on instrument

human ROR1 on cell lines [22] = target: T1, human ROR1 on cell lines; assay: flow cytometry on Jeko-1 cells, FITC secondary, surface signal left after 37 C, 2.5 hr T2 (secondary only 215)
Experimental: as §1

human ROR1 on cell lines [23] = target: T1, human ROR1 on cell lines; assay: flow cytometry on Jeko-1 cells, FITC secondary, 4 C (on ice) T0 (secondary only 242)
Experimental: as §1

[24] = target: T2, ROR1 (target of the KD values in Table 7) (Homo sapiens (Human), UniProt Q01973 30-403, limits assumed); assay: method not stated (Table 7); upper end of the printed range 100-400 pM
T2 sequence (Q01973 30-403 limits assumed): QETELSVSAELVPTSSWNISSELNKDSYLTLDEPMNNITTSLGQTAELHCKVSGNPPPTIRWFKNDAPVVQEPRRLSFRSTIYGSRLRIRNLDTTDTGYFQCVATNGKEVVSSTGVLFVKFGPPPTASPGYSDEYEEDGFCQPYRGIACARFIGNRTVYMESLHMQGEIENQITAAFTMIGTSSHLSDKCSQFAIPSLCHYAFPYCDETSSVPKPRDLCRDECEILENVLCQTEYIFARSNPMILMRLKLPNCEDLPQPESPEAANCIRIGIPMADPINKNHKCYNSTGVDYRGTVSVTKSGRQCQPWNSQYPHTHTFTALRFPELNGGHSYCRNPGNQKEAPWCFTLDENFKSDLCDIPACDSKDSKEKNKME

[25] = target: T2, ROR1 (target of the KD values in Table …); assay: method not stated (Table 7); lower end of the printed range 100-400 pM

T1 sequence (Q01973 30-937 limits assumed): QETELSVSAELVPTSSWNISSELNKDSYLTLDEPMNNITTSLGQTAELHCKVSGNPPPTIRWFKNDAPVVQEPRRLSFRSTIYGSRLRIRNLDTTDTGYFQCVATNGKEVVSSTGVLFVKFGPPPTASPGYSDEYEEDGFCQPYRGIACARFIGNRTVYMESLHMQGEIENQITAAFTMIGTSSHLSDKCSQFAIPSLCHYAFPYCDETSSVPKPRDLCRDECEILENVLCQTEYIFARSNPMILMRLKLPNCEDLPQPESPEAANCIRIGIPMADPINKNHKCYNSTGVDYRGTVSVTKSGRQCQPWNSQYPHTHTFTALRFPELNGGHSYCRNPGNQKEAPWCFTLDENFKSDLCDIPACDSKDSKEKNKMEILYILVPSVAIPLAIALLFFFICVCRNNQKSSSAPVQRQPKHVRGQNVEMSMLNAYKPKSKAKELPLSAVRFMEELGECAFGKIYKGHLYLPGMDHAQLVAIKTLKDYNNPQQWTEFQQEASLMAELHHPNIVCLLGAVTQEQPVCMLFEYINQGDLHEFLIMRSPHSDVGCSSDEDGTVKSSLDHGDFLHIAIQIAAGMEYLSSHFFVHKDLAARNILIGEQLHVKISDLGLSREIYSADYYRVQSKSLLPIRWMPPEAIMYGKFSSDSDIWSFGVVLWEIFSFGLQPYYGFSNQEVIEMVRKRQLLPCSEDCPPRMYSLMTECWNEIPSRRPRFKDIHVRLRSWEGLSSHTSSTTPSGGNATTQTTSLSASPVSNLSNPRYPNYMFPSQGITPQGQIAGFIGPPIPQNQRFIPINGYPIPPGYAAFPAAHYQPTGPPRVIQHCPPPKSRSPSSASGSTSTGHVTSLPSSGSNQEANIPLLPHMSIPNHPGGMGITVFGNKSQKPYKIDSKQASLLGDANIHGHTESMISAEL

Ab binding capacity/cell (human ROR1 on cell lines [1]): 1024 per cell | MFI (Geom. mean of FL2) (human ROR1 on cell lines [2]): 1400 | MFI (Geom. mean of FL2) (human ROR1 on cell lines [3]): 294 | Ab binding capacity/cell (human ROR1 on cell lines [4]): 464 per cell | MFI (Geom. mean of FL2) (human ROR1 on cell lines [5]): 659 | Ab binding capacity/cell (human ROR1 on cell lines [6]): 227 per cell | MFI (Geom. mean of FL2) (human ROR1 on cell lines [7]): 327 | MFI (Geom. mean of FL2) (human ROR1 on cell lines [8]): 1070 | Ab binding capacity/cell (human ROR1 on cell lines [9]): 757 per cell | MFI (Geom. mean of FL2) (human ROR1 on cell lines [10]): 849 | Ab binding capacity/cell (human ROR1 on cell lines [11]): 996 per cell | Ab binding capacity/cell (human ROR1 on cell lines [12]): 204 per cell | MFI (Geom. mean of FL2) (human ROR1 on cell lines [13]): 338 | Ab binding capacity/cell (human ROR1 on cell lines [14]): 760 per cell | MFI (Geom. mean of FL2) (human ROR1 on cell lines [15]): 1430 | MFI (Geom. mean of FL2) (human ROR1 on cell lines [16]): 931 | MFI (Geom. mean of FL2) (human ROR1 on cell lines [17]): 1070 | Ab binding capacity/cell (human ROR1 on cell lines [18]): 660 per cell | Ab binding capacity/cell (human ROR1 on cell lines [19]): 600 per cell | Ab binding capacity/cell (human ROR1 on cell lines [20]): 235 per cell
Molecule: mIgG (antibody)

MFI (human ROR1 on cell lines [21]): 1070 | MFI (human ROR1 on cell lines [22]): 882 | MFI (human ROR1 on cell lines [23]): 1070
B1: 2A2-untagged (antibody, V domains shown)
VH: QVQLQQSGAELVRPGASVTLSCKASGYTFSDYEMHWVIQTPVHGLEWIGAIDPETGGTAYNQKFKGKAILTADKSSSTAYMELRSLTSEDSAVYYCTGYYDYDSFTYWGQGTLVTVSA
VL: DIVMTQSQKIMSTTVGDRVSITCKASQNVDAAVAWYQQKPGQSPKLLIYSASNRYTGVPDRFTGSGSGTDFTLTISNMQSEDLADYFCQQYDIYPYTFGGGTKLEIK
notes: also called untagged 2A2

MFI (human ROR1 on cell lines [21]): 1050 | MFI (human ROR1 on cell lines [22]): 786 | MFI (human ROR1 on cell lines [23]): 1100
B2: 2A2-CH1 tag (antibody, V domains shown)
VH: QVQLQQSGAELVRPGASVTLSCKASGYTFSDYEMHWVIQTPVHGLEWIGAIDPETGGTAYNQKFKGKAILTADKSSSTAYMELRSLTSEDSAVYYCTGYYDYDSFTYWGQGTLVTVSA
VL: DIVMTQSQKIMSTTVGDRVSITCKASQNVDAAVAWYQQKPGQSPKLLIYSASNRYTGVPDRFTGSGSGTDFTLTISNMQSEDLADYFCQQYDIYPYTFGGGTKLEIK
modifications: tag in CH1 (sequence and position not given)
notes: The protocol speaks of 'each ADC', so a payload may be attached; none is named; also called CH1-tagged 2A2

MFI (human ROR1 on cell lines [21]): 959 | MFI (human ROR1 on cell lines [22]): 750 | MFI (human ROR1 on cell lines [23]): 990
B3: 2A2-C-Terminal tag (antibody, V domains shown)
VH: QVQLQQSGAELVRPGASVTLSCKASGYTFSDYEMHWVIQTPVHGLEWIGAIDPETGGTAYNQKFKGKAILTADKSSSTAYMELRSLTSEDSAVYYCTGYYDYDSFTYWGQGTLVTVSA
VL: DIVMTQSQKIMSTTVGDRVSITCKASQNVDAAVAWYQQKPGQSPKLLIYSASNRYTGVPDRFTGSGSGTDFTLTISNMQSEDLADYFCQQYDIYPYTFGGGTKLEIK
modifications: C-terminal tag on the antibody (sequence not given)
notes: The protocol speaks of 'each ADC', so a payload may be attached; none is named; also called CT-tagged 2A2; C-terminal (CT)-tagged 2A2

MFI (human ROR1 on cell lines [21]): 869 | MFI (human ROR1 on cell lines [22]): 658 | MFI (human ROR1 on cell lines [23]): 1100
B4: 2A2-CH1/C-Terminal double tag (antibody, V domains shown)
VH: QVQLQQSGAELVRPGASVTLSCKASGYTFSDYEMHWVIQTPVHGLEWIGAIDPETGGTAYNQKFKGKAILTADKSSSTAYMELRSLTSEDSAVYYCTGYYDYDSFTYWGQGTLVTVSA
VL: DIVMTQSQKIMSTTVGDRVSITCKASQNVDAAVAWYQQKPGQSPKLLIYSASNRYTGVPDRFTGSGSGTDFTLTISNMQSEDLADYFCQQYDIYPYTFGGGTKLEIK
modifications: tags in CH1 and at the C-terminus (sequences and positions not given)
notes: The protocol speaks of 'each ADC', so a payload may be attached; none is named; also called CH1/CT double-tagged 2A2

Kd [24]: ≤ 0.4 nM | Kd [25]: ≥ 0.1 nM
B5: Mouse 2A2 Antibody (antibody, mouse IgG1, kappa, V domains shown)
VH: QVQLQQSGAELVRPGASVTLSCKASGYTFSDYEMHWVIQTPVHGLEWIGAIDPETGGTAYNQKFKGKAILTADKSSSTAYMELRSLTSEDSAVYYCTGYYDYDSFTYWGQGTLVTVSA
VL: DIVMTQSQKIMSTTVGDRVSITCKASQNVDAAVAWYQQKPGQSPKLLIYSASNRYTGVPDRFTGSGSGTDFTLTISNMQSEDLADYFCQQYDIYPYTFGGGTKLEIKR
notes: also called m2A2; 2A2 anti-ROR1 antibodies

Reference: US20200338210A1 (ARDEAGEN, published 2020)
